Source: the supplement of paper PMC9112550, “Optimization of the antimicrobial peptide Bac7 by deep mutational scanning” (BMC Biology, 2022)

Tested on: Escherichia coli TOP10
Assay: shrunken log2 fold change of peptide-encoding DNA abundance (4.5 h post-induction vs induction); higher = less antimicrobial activity (less host growth inhibition)
Conditions: time post-induction: 4.5 h; library: site-saturation at positions 5, 18, 19, 20
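Also: peptides expressed intracellularly from a pBAD plasmid library in pooled LB shake-flask culture, induced with 0.3% L-arabinose, DNA abundance read by NGS, three biological replicates, DESeq2 with apeglm shrinkage.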

Sequence	shrunken log2 fold change
RRIRRRPPRLPRPRPRPLSKPRP	1.95
RRIRRRPPRLPRPRPRPMDAPRP	0.161
RRIRRRPPRLPRPRPRPMDFPRP	0.195
RRIRRRPPRLPRPRPRPMDNPRP	0.158
RRIRRRPPRLPRPRPRPMGMPRP	0.747
RRIRRRPPRLPRPRPRPMHDPRP	0.117
RRIRRRPPRLPRPRPRPMIRPRP	0.272
RRIRRRPPRLPRPRPRPMKVPRP	-0.0467
RRIRRRPPRLPRPRPRPMKYPRP	0.00758
RRIRRRPPRLPRPRPRPMLHPRP	0.385
RRIRRRPPRLPRPRPRPMNLPRP	0.0545
RRIRRRPPRLPRPRPRPMRCPRP	0.384
RRIRRRPPRLPRPRPRPMRMPRP	0.119
RRIRRRPPRLPRPRPRPMRTPRP	0.911
RRIRRRPPRLPRPRPRPMSRPRP	-0.0357
RRIRRRPPRLPRPRPRPMTGPRP	0.0638
RRIRRRPPRLPRPRPRPMYEPRP	-0.034
RRIRRRPPRLPRPRPRPMYFPRP	-0.21
RRIRRRPPRLPRPRPRPNAPPRP	0.675
RRIRRRPPRLPRPRPRPNCPPRP	0.039
RRIRRRPPRLPRPRPRPNDCPRP	0.264
RRIRRRPPRLPRPRPRPNFNPRP	-0.0741
RRIRRRPPRLPRPRPRPNFQPRP	0.253
RRIRRRPPRLPRPRPRPNFRPRP	0.0627
RRIRRRPPRLPRPRPRPNGGPRP	0.171

Sequence	shrunken log2 fold change
RRIRRRPPRLPRPRPRPNGHPRP	0.193
RRIRRRPPRLPRPRPRPNGMPRP	-0.0764
RRIRRRPPRLPRPRPRPNGWPRP	0.282
RRIRRRPPRLPRPRPRPNHHPRP	-0.25
RRIRRRPPRLPRPRPRPNKPPRP	0.101
RRIRRRPPRLPRPRPRPNKYPRP	0.861
RRIRRRPPRLPRPRPRPNLPPRP	0.0123
RRIRRRPPRLPRPRPRPNNPPRP	0.0225
RRIRRRPPRLPRPRPRPNNYPRP	-0.378
RRIRRRPPRLPRPRPRPNQQPRP	-0.0676
RRIRRRPPRLPRPRPRPNRHPRP	-0.00811
RRIRRRPPRLPRPRPRPNRTPRP	-0.0707
RRIRRRPPRLPRPRPRPNSCPRP	-0.0116
RRIRRRPPRLPRPRPRPNSRPRP	-0.0456
RRIRRRPPRLPRPRPRPNTGPRP	-0.121
RRIRRRPPRLPRPRPRPNVYPRP	0.0361
RRIRRRPPRLPRPRPRPNWEPRP	-0.0176
RRIRRRPPRLPRPRPRPNWRPRP	0.415
RRIRRRPPRLPRPRPRPNYHPRP	-0.223
RRIRRRPPRLPRPRPRPNYWPRP	-0.19
RRIRRRPPRLPRPRPRPPACPRP	0.619
RRIRRRPPRLPRPRPRPPATPRP	0.958
RRIRRRPPRLPRPRPRPPEPPRP	0.977
RRIRRRPPRLPRPRPRPPERPRP	0.643
RRIRRRPPRLPRPRPRPPFLPRP	0.315

Sequence	shrunken log2 fold change
RRIRRRPPRLPRPRPRPPGAPRP	0.972
RRIRRRPPRLPRPRPRPPGLPRP	0.658
RRIRRRPPRLPRPRPRPPIKPRP	0.14
RRIRRRPPRLPRPRPRPPKFPRP	0.298
RRIRRRPPRLPRPRPRPPKGPRP	0.706
RRIRRRPPRLPRPRPRPPKLPRP	0.0716
RRIRRRPPRLPRPRPRPPLFPRP	0.464
RRIRRRPPRLPRPRPRPPMDPRP	0.385
RRIRRRPPRLPRPRPRPPNKPRP	0.333
RRIRRRPPRLPRPRPRPPNQPRP	0.337
RRIRRRPPRLPRPRPRPPPCPRP	0.864
RRIRRRPPRLPRPRPRPPPVPRP	0.931
RRIRRRPPRLPRPRPRPPQGPRP	0.856
RRIRRRPPRLPRPRPRPPREPRP	1.11
RRIRRRPPRLPRPRPRPPRRPRP	1.34
RRIRRRPPRLPRPRPRPPSFPRP	0.251
RRIRRRPPRLPRPRPRPPTVPRP	0.24
RRIRRRPPRLPRPRPRPPVIPRP	-0.139
RRIRRRPPRLPRPRPRPPWKPRP	0.0487
RRIRRRPPRLPRPRPRPPWMPRP	0.269
RRIRRRPPRLPRPRPRPQAIPRP	-0.0149
RRIRRRPPRLPRPRPRPQDSPRP	-0.0402
RRIRRRPPRLPRPRPRPQDVPRP	-0.108
RRIRRRPPRLPRPRPRPQDYPRP	-0.268
RRIRRRPPRLPRPRPRPQEDPRP	0.108

Sequence	shrunken log2 fold change
RRIRRRPPRLPRPRPRPQFIPRP	-0.387
RRIRRRPPRLPRPRPRPQIAPRP	0.31
RRIRRRPPRLPRPRPRPQKMPRP	-0.02
RRIRRRPPRLPRPRPRPQLAPRP	-0.0216
RRIRRRPPRLPRPRPRPQLDPRP	-0.0387
RRIRRRPPRLPRPRPRPQLEPRP	0.059
RRIRRRPPRLPRPRPRPQLGPRP	0.0467
RRIRRRPPRLPRPRPRPQLWPRP	0.146
RRIRRRPPRLPRPRPRPQNFPRP	-0.149
RRIRRRPPRLPRPRPRPQQEPRP	-0.0236
RRIRRRPPRLPRPRPRPQQIPRP	-0.0299
RRIRRRPPRLPRPRPRPQQSPRP	0.273
RRIRRRPPRLPRPRPRPQTCPRP	0.247
RRIRRRPPRLPRPRPRPQYCPRP	-0.3
RRIRRRPPRLPRPRPRPQYDPRP	-0.224
RRIRRRPPRLPRPRPRPQYSPRP	-0.108
RRIRRRPPRLPRPRPRPRCMPRP	0.1
RRIRRRPPRLPRPRPRPRDFPRP	0.298
RRIRRRPPRLPRPRPRPRDMPRP	0.186
RRIRRRPPRLPRPRPRPREMPRP	0.513
RRIRRRPPRLPRPRPRPRGSPRP	0.729
RRIRRRPPRLPRPRPRPRGTPRP	0.216
RRIRRRPPRLPRPRPRPRHPPRP	0.524
RRIRRRPPRLPRPRPRPRIDPRP	-0.0185
RRIRRRPPRLPRPRPRPRILPRP	-0.143

Sequence	shrunken log2 fold change
RRIRRRPPRLPRPRPRPRKWPRP	0.319
RRIRRRPPRLPRPRPRPRNSPRP	-0.0834
RRIRRRPPRLPRPRPRPRPHPRP	1.6
RRIRRRPPRLPRPRPRPRQNPRP	0.419
RRIRRRPPRLPRPRPRPRTHPRP	0.108
RRIRRRPPRLPRPRPRPRVEPRP	0.662
RRIRRRPPRLPRPRPRPRVKPRP	0.699
RRIRRRPPRLPRPRPRPRYHPRP	0.14
RRIRRRPPRLPRPRPRPSAGPRP	0.392
RRIRRRPPRLPRPRPRPSAPPRP	0.418
RRIRRRPPRLPRPRPRPSARPRP	0.349
RRIRRRPPRLPRPRPRPSCNPRP	-0.112
RRIRRRPPRLPRPRPRPSDFPRP	-0.116
RRIRRRPPRLPRPRPRPSDGPRP	0.0219
RRIRRRPPRLPRPRPRPSDPPRP	-0.00173
RRIRRRPPRLPRPRPRPSECPRP	-0.039
RRIRRRPPRLPRPRPRPSEQPRP	0.262
RRIRRRPPRLPRPRPRPSGQPRP	0.306
RRIRRRPPRLPRPRPRPSIGPRP	-0.0466
RRIRRRPPRLPRPRPRPSKFPRP	-0.0219
RRIRRRPPRLPRPRPRPSLLPRP	0.17
RRIRRRPPRLPRPRPRPSMPPRP	-0.0915
RRIRRRPPRLPRPRPRPSNMPRP	-0.311
RRIRRRPPRLPRPRPRPSPKPRP	0.127
RRIRRRPPRLPRPRPRPSQGPRP	0.0642

Sequence	shrunken log2 fold change
RRIRRRPPRLPRPRPRPSQQPRP	-0.0599
RRIRRRPPRLPRPRPRPSQTPRP	0.294
RRIRRRPPRLPRPRPRPSRHPRP	0.319
RRIRRRPPRLPRPRPRPSSHPRP	-0.0976
RRIRRRPPRLPRPRPRPSSKPRP	-0.145
RRIRRRPPRLPRPRPRPSTDPRP	-0.14
RRIRRRPPRLPRPRPRPSVIPRP	-0.00654
RRIRRRPPRLPRPRPRPSWPPRP	0.0963
RRIRRRPPRLPRPRPRPSYKPRP	-0.563
RRIRRRPPRLPRPRPRPTCRPRP	0.41
RRIRRRPPRLPRPRPRPTCYPRP	-0.242
RRIRRRPPRLPRPRPRPTDDPRP	0.741
RRIRRRPPRLPRPRPRPTFAPRP	0.765
RRIRRRPPRLPRPRPRPTHIPRP	0.274
RRIRRRPPRLPRPRPRPTHQPRP	0.414
RRIRRRPPRLPRPRPRPTIHPRP	-0.0346
RRIRRRPPRLPRPRPRPTISPRP	-0.28
RRIRRRPPRLPRPRPRPTKCPRP	0.114
RRIRRRPPRLPRPRPRPTKIPRP	0.0521
RRIRRRPPRLPRPRPRPTKRPRP	0.145
RRIRRRPPRLPRPRPRPTLVPRP	0.315
RRIRRRPPRLPRPRPRPTMDPRP	0.147
RRIRRRPPRLPRPRPRPTMPPRP	0.438
RRIRRRPPRLPRPRPRPTNNPRP	-0.0392
RRIRRRPPRLPRPRPRPTPWPRP	0.841
